Data on 14 molecules can be found in article PMC6377682 (2019).

B2: human ASPP2^920-1120 (domain or fragment)
chain: MRVKFNPLALLLDSSLEGEFDLVQRIIYEVDDPSLPNDEGITALHNAVCAGHTEIVKFLVQFGVNVNAADSDGWTPLHCAASCNNVQVCKFLVESGAAVFAMTYSDMQTAADKCEEMEEGYTQCSQFLYGVQEKMGIMNKGVIYALWDYEPQNDDELPMKEGDCMTIIHREDEDEIEWWWARLNDKEGYVPRNLLGLYPRI
B5: human PP1β^6-327 (enzyme)
chain: LNVDSLITRLLEVRGCRPGKIVQMTEAEVRGLCIKSREIFLSQPILLELEAPLKICGDIHGQYTDLLRLFEYGGFPPEANYLFLGDYVDRGKQSLETICLLLAYKIKYPENFFLLRGNHECASINRIYGFYDECKRRFNIKLWKTFTDCFNCLPIAAIVDEKIFCCHGGLSPDLQSMEQIRRIMRPTDVPDTGLLCDLLWSDPDKDVQGWGENDRGVSFTFGADVVSKFLNRHDLDLICRAHQVVEDGYEFFAKRQLVTLFSAPNYCGEFDNAGGMMSVDETLMCSFQILKPSEKKAKYQYGGLNSGRPVTPPRTANPPKKR

In the experiment “human ASPP2^920-1120” the target is B2. Nature of the experiment: ITC. For orientation: ITC needs no label: the signal is the heat of the interaction.
The target of the experiment “human PP1β^6-327” is B5. Nature of the experiment: BLI. On the technique in general: BLI is a label-free optical method that tracks binding on a fibre tip over time.
In the next experiment the target is human PP1γ1^7-323 (human, UniProt P36873 7-323). Nature of the experiment: BLI.
In a further experiment the target is human PP1α^7-330 (human, UniProt P62136 7-330). Nature of the experiment: BLI.
The target of another experiment is T1, ASPP2^D1093S (human, UniProt Q13625 920-1120, D1093S).
T1 sequence: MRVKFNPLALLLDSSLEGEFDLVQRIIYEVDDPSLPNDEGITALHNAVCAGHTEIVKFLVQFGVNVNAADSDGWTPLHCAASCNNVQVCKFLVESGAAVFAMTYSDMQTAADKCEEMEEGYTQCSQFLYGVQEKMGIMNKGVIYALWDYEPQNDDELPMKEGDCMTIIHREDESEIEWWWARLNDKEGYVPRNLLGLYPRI
Nature of the experiment: BLI.

The target of the next experiment is T2, ASPP1^K1052E/S1055D (human, UniProt Q96KQ4 882-1090, K1052E | S1055D).
T2 sequence: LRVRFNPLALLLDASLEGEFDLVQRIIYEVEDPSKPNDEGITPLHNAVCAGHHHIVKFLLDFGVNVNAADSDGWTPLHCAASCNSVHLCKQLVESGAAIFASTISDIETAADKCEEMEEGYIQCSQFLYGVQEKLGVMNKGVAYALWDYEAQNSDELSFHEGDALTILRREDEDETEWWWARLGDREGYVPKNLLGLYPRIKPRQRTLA
Nature of the experiment: BLI.

For another experiment, the target named is T3, ASPP2^E1090K/D1093S (human, UniProt Q13625 920-1120, E1090K | D1093S).
T3 sequence: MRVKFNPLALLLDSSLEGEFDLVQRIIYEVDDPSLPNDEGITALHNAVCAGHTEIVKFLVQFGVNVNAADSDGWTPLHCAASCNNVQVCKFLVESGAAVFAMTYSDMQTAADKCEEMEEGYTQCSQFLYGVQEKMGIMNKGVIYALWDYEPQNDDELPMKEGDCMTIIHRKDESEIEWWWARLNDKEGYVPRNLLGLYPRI
Nature of the experiment: BLI.

For a further experiment, the target named is T4, ASPP2^D1091G/E1092P (human, UniProt Q13625 920-1120, D1091G | E1092P).
T4 sequence: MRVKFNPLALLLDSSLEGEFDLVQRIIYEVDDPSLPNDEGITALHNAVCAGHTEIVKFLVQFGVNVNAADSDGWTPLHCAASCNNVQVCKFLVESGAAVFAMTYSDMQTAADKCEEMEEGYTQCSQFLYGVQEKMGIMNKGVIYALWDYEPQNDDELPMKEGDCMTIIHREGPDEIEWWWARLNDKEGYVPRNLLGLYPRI
Nature of the experiment: ITC.

B1: PP1γ1^298-323 chimera with the PP1α C-terminal residues NSAKAKK (peptide)
chain: PAEKKKPNATRPVTPPRNSAKAKK
modifications: synthetic peptide, termini not stated; the end of the PPII motif (RPVTPPR) is taken as Arg314 by alignment with PP1α 317-323
On to B1, for which the Kd (in general, the concentration at which binding is half-saturated) in the experiment with human ASPP2^920-1120 turned out to be 0.326 µM.
B2: the dissociation constant Kd with human PP1β^6-327 was determined as 0.177 µM; in the experiment with human PP1γ1^7-323 it was 0.195 µM.

B3: PP1β^297-327 C-tail peptide (peptide)
peptide: PSEKKAKYQYGGLNSGRPVTPPRTANPPKKR
B3 gave a Kd with human ASPP2^920-1120 of 0.965 µM.

B4: human iASPP^621-828 (domain or fragment)
chain: RRARLNPLVLLLDAALTGELEVVQQAVKEMNDPSQPNEEGITALHNAICGANYSIVDFLITAGANVNSPDSHGWTPLHCAASCNDTVICMALVQHGAAIFATTLSDGATAFEKCDPYREGYADCATYLADVEQSMGLMNSGAVYALWDYSAEFGDELSFREGESVTVLRRDGPEETDWWWAALHGQEGYVPRNYFGLFPRVKPQRSKV
As for B4, the Kd in the experiment with human PP1α^7-330 came to 0.0024 µM; in the experiment with human PP1γ1^7-323, 0.0049 µM.
With B5, the Kd in the experiment with ASPP2^D1093S was determined as 0.136 µM; with ASPP1^K1052E/S1055D, 0.0844 µM; with ASPP2^E1090K/D1093S it was 0.178 µM.

B6: PP1α^301-330 K327A peptide (peptide)
peptide: KNKGKYGQFSGLNPGGRPITPPRNSAAAKK
Regarding B6, the Kd in the experiment with human ASPP2^920-1120 was determined as 0.52 µM.

B7: PP1α^301-330 K330A peptide (peptide)
peptide: KNKGKYGQFSGLNPGGRPITPPRNSAKAKA
In the experiment with human ASPP2^920-1120, B7 displayed a Kd of 0.326 µM.

B8: PP1γ2^297-324 chimera with the PP1α C-terminal residues NSAKAKK (peptide)
chain: KPAEKKKPNATRPVTPPRNSAKAKK
modifications: synthetic peptide, termini not stated; γ2 is identical to γ1 through the PPII motif (end taken as Arg314 by alignment), so the canonical entry is used
Turning to B8, in the experiment with human ASPP2^920-1120, binding was characterised by a dissociation constant (Kd) of 0.326 µM.

B9: human ASPP1^882-1090 (domain or fragment)
chain: LRVRFNPLALLLDASLEGEFDLVQRIIYEVEDPSKPNDEGITPLHNAVCAGHHHIVKFLLDFGVNVNAADSDGWTPLHCAASCNSVHLCKQLVESGAAIFASTISDIETAADKCEEMEEGYIQCSQFLYGVQEKLGVMNKGVAYALWDYEAQNSDELSFHEGDALTILRRKDESETEWWWARLGDREGYVPKNLLGLYPRIKPRQRTLA
With B9, the Kd in the experiment with human PP1β^6-327 turned out to be 0.0665 µM; in the experiment with human PP1α^7-330, 0.059 µM; in the experiment with human PP1γ1^7-323, 0.0606 µM.

B10: PP1γ2^297-324 C-tail peptide (peptide)
peptide: KPAEKKKPNATRPVTPPRVASGLNPSIQ
Turning to B10, in the experiment with human ASPP2^920-1120, binding was put at a Kd of 2.15 µM.

B11: PP1α^301-330 C-tail peptide (peptide)
peptide: KNKGKYGQFSGLNPGGRPITPPRNSAKAKK
In the experiment with ASPP2^D1091G/E1092P, B11 yielded a Kd of 0.172 µM.

B12: PP1β^297-327 chimera with the PP1α C-terminal residues NSAKAKK (peptide)
chain: PSEKKAKYQYGGLNSGRPVTPPRNSAKAKK
modifications: synthetic peptide, termini not stated; the end of the PPII motif (RPVTPPR) is taken as Arg319 by alignment with PP1α 317-323
In the experiment with human ASPP2^920-1120, B12 yielded a Kd of 0.2 µM.

B13: PP1α^301-330 K329A peptide (peptide)
peptide: KNKGKYGQFSGLNPGGRPITPPRNSAKAAK
With B13, the Kd in the experiment with human ASPP2^920-1120 came out at 0.342 µM.

B14: PP1γ1^298-323 C-tail peptide (peptide)
peptide: PAEKKKPNATRPVTPPRGMITKQAKK
For B14, the Kd with human ASPP2^920-1120 was 0.69 µM.
